B1: HJ-9 (bispecific antibody)
chain 1: not shown
chain 2: DIQMTQSPSSVSASVGDRVTITCRASQDIANYLSWYQQKPGKSPKLLIYGTSNLEVGVPSRFSGSRSGTDFTLTISSLQPEDFATYYCLQDKEFPRTFGGGTKVEIKRTVASSGAPRFLTCPKASVVSVGKDATLSSQIVGNPFPQVSWEKDKQPVTAGVRFRLAQDGDLYRLKILDLQLSDSGQYVSRARNAHGEAFACLGLQVDAEA
chain 3: EVQLVQSGAEVKKPGSSVKVSCKASGYTFSNYLIEWVRQAPGQGLEWIGVIDPGVGDTNYNENFKGRATLTADKSTSTAYIELSSLRSEDTAVYYCAREDNTGTAFDYWGQGTTVTVSSASTKGPSVFPLAPSSKSTSGGTAALGCLVKDYFPEPVTVSWNSGALTSGVHTFPAVLQSSGLYSLSSVVTVPSSSLGTQTYICNVNHKPSNTKVDKKVEPKSCDKTHTCPPCPAPEAAGGPSVFLFPPKPKDTLMISRTPEVTCVVVDVSHEDPEVKFNWYVDGVEVHNAKTKPREEQYNSTYRVVSVLTVLHQDWLNGKEYKCKVSNKALPAPIEKTISKAKGQPREPQVCTLPPSREEMTKNQVSLSCAVKGFYPSDIAVEWESNGQPENNYKTTPPVLDSDGSFFLVSKLTVDKSRWQQGNVFSCSVMHEALHNHYTQKSLSLSPGK
chain 4: SIVMTQTPLSLSVTPGQPASISCKASQSVSSDVTWYLQKPGQSPQLLIYYVSEHYTGVPDRFSGSGYGTDFTLKISRVEAEDVGVYYCQQHHRFPLTFGQGTKLEIKRTVAAPSVFIFPPSDEQLKSGTASVVCLLNNFYPREAKVQWKVDNALQSGNSQESVTEQDSKDSTYSLSSTLTLSKADYEKHKVYACEVTHQGLSSPVTKSFNRGEC
B2: HJ-10 (bispecific antibody)
chain 1: not shown
chain 2: B1 chain 2 with C121R, S137C, S188C
chain 3: B1 chain 3
chain 4: B1 chain 4
B3: HJ-11 (bispecific antibody)
chain 1: not shown
chain 2: B1 chain 2 with A115C, C121R, S137C, S188C
chain 3: B1 chain 3
chain 4: B1 chain 4
B4: P3-C7 L7H1 (antibody, human IgG1, kappa, V domains shown)
VH: EVQLVQSGAEVKKPGASVKVSCKASGYTFTDHYIHWVRQAPGQGLEWMGVINPYNDGATYNQKFKGRVTMTVDKSTSTVYMELSSLRSEDTAVYYCARPPRAYGNYAGYWGQGTTVTVSS
VL: DVVMTQTPLSLPVTPGEPASISCRSSQSLVHSNQNTYLHWYLQKPGQSPQLLIYKVSNRFSGVPDRFSGSGSRTDFTLKISRVEAEDVGVYYCSQSTHVPYTFGGGTKVEIKR
notes: humanized, human IgG1/kappa
B5: P3-F6 CHI (antibody, human IgG1, kappa, V domains shown)
VH: EVQLQQSGPELVKPGASVKISCKASGYTFTDYYMNWVKQSHGKSLEWIGDINPNNGGTSYNQKFKGKATLTVDKSSSTAYMELRSLTSEDSAVYYCARKTWLPYASVYWGQGTSVTVSS
VL: DVVMTQTPLSLPVSLGDQASISCRSSQSLVHSNGNTYLHWYLQKPGQSPKLLIYKVSNRFSGVPDRFSGSGSGTDFTLKISRVEAEDLGVYFCSQSTHVPPYTFGGGTKLEIKR
notes: chimeric
B6: 146 L1H1 (antibody, human IgG1, kappa, V domains shown)
VH: EFQLVQSGAEVKKPGASVKVSCKASGYSFTDYNMNWVRQAPGQRLEWMGLINPKYGTTNYNQKFKGRVTLTVDQSSSTAYMELSSLRSEDTAVYYCARDNYPAWFAYWGQGTTVTVSS
VL: EIVLTQSPATLSLSPGERATLSCSASSSLNYMYWYQQKPGSSPRPWIYRTSQLASGVPARFSGSGSGTDYTLTISSLEPEDFAVYYCQQYHSYPPTFGGGTKVEIKR
notes: humanized, human IgG1/kappa
B7: P1-D2 CHI (antibody, human IgG1, kappa, V domains shown)
VH: EFQLQQSGPELVKPGASVKISCKASGYSFTDHNMNWVKQSNGKSLEWIGVINPKYGTISNNQKFKGKATLTVDQSSSTAYMQLNSLTAEDSAVYYCARDDYPNYFDYWGQGTTLTVSS
VL: QIVLTQSPAIMSASPGEKVTISCSANSSVNYIYWYQQKPGSSPKPWIYRTSNLASGVPARFSGSGSGTSYSLTISSMEAEDAATYYCQQYHSFPPTFGGGTKLEIKR
notes: chimeric
B8: 81 L3H1 (antibody, human IgG1, kappa, V domains shown)
VH: EVQLVQSGAEVKKPGASVKVSCKASGYTFTDHNMNWVKQAPGQRLEWMGVMNPKFGTINYNQKFKDKATITRDTSASTAYMELSSLRSEDTAVYYCARDNYPNYFDYWGQGTTVTVSS
VL: DIQLTQSPSFLSASPGDRVTITCSASSSVNYMYWYQQKPGSSPKSWIYRTSNLASGVPSRFSGSGSGTEYTLTISSLQPEDFATYYCQQYHDYPPTFGGGTKVEIKR
notes: humanized, human IgG1/kappa
B9: P1-F10 CHI (antibody, human IgG1, kappa, V domains shown)
VH: EVQLVESGGGLVKPGGSLKLSCAASGFAFSDYGMHWVRQAPEKGLEWVAHISSGSSTIYYADTVKGRFTISRDNVKNTLFLQMTSLRSEDTAMYYCARSRNYYGSRVFDYWGQGTPLTVSS
VL: QIVLTQSPALMSVSPGEKVTMTCSASSSVNYMYWYQQKPRSSPKPWIYLTSNLASGVPARFSGSGSGTSYSLTISSMEAEDAATYYCQQWNSNPPTFGSGTKLEIKR
notes: chimeric
B10: P1-D9 CHI (antibody, human IgG1, kappa, V domains shown)
VH: B9 VH with A28S, V48I, V75A, V107I, P116T
VL: B9 VL with L10R, V13A, N30S, N91S
notes: chimeric
B11: P3-D9 CHI (antibody, human IgG1, kappa, V domains shown)
VH: B9 VH with A61G, V75A, A97T, P116T
VL: B9 VL with N30S, N52S, S75N, S76N, M77V, N91S, L103V
notes: chimeric
B12: P1-D3 CHI (antibody, human IgG1, kappa, V domains shown)
VH: QIQLIQSGPELKKPGETVKISCKASGYTFTTYGMSWVKQAPGKGLKWMGWINTYSGVPTYADDFKGRFAFSLETSANTAYLQINNLKNEDTATYFCARRGYSNLYYYALDYWGQGASVTVSS
VL: QIVLTQSPAIMSASPGEKVTMTCSASSSVNYMHWYQQKSGTSPKRWIYDTSKLASGVPTRFSGSGSGTSYSLTISSMEAEDAATYFCQQWSSNPSTFGGGTKLEIKR
notes: chimeric
B13: P3-B4 CHI (antibody, human IgG1, kappa, V domains shown)
VH: B12 VH with I5V, T17I, N77S, G100A, Y101G, N103S, L109M, A116T
VL: B12 VL with N30S, H33L, T59A, F86Y, S95P
notes: chimeric

Changes are numbered by the printed parent chain.

The first assay deals with hIL5 (human, UniProt P05113 20-134). Kind of assay: ELISA. On the technique in general: In an ELISA, binding on a coated surface is turned into a signal by an enzyme label.
A word on the EC50: it is the concentration giving half of the maximal effect. Read a high EC50 as a need for much substance. The molecule B1 yielded an EC50 of 10.9 nM.
Same read-out and setting: for B2 the value was 20.8 nM.
Still for that read-out and setting: for B3 the value was 9.46 nM.

The target in the next assay is hTSLP (human, UniProt Q969D9 29-159). Kind of assay: ELISA.
For the molecule B1, a half-maximal response (EC50) required 3.18 nM.
On the same count and under the same terms, the same measure for B2: 3.17 nM.
The same measure, in the same setting: the same measure for B3: 3 nM.

The target of the next assay is T1, hGUCY2C ECD-His (human, UniProt P25092 24-430).
T1 construct: also called human GUCY2C protein
Kind of assay: SPR Biacore, antibody captured. The text has this:
To test the affinity of the GUCY2C monoclonal antibodies of the present disclosure for GUCY2C, in this test example, the instruments Biacore 8K and Biacore T200 were used to detect the ability of the antibodies to bind to hGUCY2C-ECD-His (SEQ ID NO: 3). The specific method is as follows: The antibody was affinity-captured using a Protein A biosensor chip conjugated with an anti-human antibody, then a solution containing GUCY2C Protein flowed on the surface of the chip, and reaction signals were detected in real time with an instrument to obtain association and dissociation curves. After dissociation was completed for each cycle, the biosensor chip was washed with 10 mM glycine-hydrochloric acid (pH 1.5) for regeneration. Data fitting was performed using a 1:1 model.
As a reminder, the Kd is the equilibrium constant for the complex coming apart. One may read the koff as the rate constant with which the complex falls apart. Low readings indicate slow dissociation, high ones fast dissociation. Usually kon stands for the rate constant with which the complex forms. Read a low kon as slower complex formation. For the molecule B4, binding was characterised by a dissociation constant (Kd) of 7.77 nM, the koff turned out to be 0.000186 s⁻¹ and the kon worked out at 23900 M⁻¹ s⁻¹.
The corresponding values for B5 are 37 nM, 0.000245 s⁻¹ and 6610 M⁻¹ s⁻¹.
As to B6, the Kd was 0.92 nM, the koff was 0.000117 s⁻¹ and the kon was 127000 M⁻¹ s⁻¹.
The corresponding values for B7 are 0.92 nM, 0.00018 s⁻¹ and 195000 M⁻¹ s⁻¹.
With B8, the Kd is 0.29 nM, the koff came to 5.19e-05 s⁻¹ and the kon stood at 181000 M⁻¹ s⁻¹.
On the same counts, the results for B9 are 8.64 nM, 0.000279 s⁻¹ and 32300 M⁻¹ s⁻¹.
On the same counts, the results for B10 are 19.6 nM, 0.000399 s⁻¹ and 20300 M⁻¹ s⁻¹.
The corresponding values for B11 are 26.5 nM, 0.000504 s⁻¹ and 19000 M⁻¹ s⁻¹.
B12 displayed a Kd of 5.06 nM, a koff of 0.000233 s⁻¹ and an on-rate constant (kon) of 46000 M⁻¹ s⁻¹.
On the same counts, the results for B13 are 8.28 nM, 0.000214 s⁻¹ and 25800 M⁻¹ s⁻¹.

The target of a further assay is T1, hGUCY2C ECD-His. Kind of assay: competition ELISA, row antibody coated; competitor 1608-biotinylated.
B4 showed a relative competition coefficient of 10.
Same read-out and setting: the same measure for B6: 12; for B8: 11.

Another assay concerns the target T1, hGUCY2C ECD-His. Kind of assay: competition ELISA, row antibody coated; competitor 81 L3H1-biotinylated.
B4 had a relative competition coefficient of 6.
The same measure, in the same setting: the same measure for B6: 99; for B8: 100.

The next assay addresses T1, hGUCY2C ECD-His. Kind of assay: competition ELISA, row antibody coated; competitor 146 L1H1-biotinylated.
The molecule B4 gave a relative competition coefficient of 13.
As for B6, the relative competition coefficient worked out at 100.
The same measure, in the same setting: the same measure for B8: 81.

In the next assay the target is T1, hGUCY2C ECD-His. Kind of assay: competition ELISA, row antibody coated; competitor P3-C7 L7H1-biotinylated.
Turning to B4, the relative competition coefficient worked out at 100.
The same measure, in the same setting: for B6 the value was 4.
Same read-out and setting: the same measure for B8: 3.

A further assay deals with T2, Human GUCY2C protein on cells (HCT116/hGUCY2C, HT-55, T84, LS1034, LS174T) (human, UniProt P25092 24-1073).
T2 construct: also called GUCY2C on the cell surface
Briefly: flow cytometry on HCT116/hGUCY2C cells, PE anti-human IgG Fc secondary antibody. A general note: In flow cytometry, cells or beads pass a laser one at a time.
Usually EC50 (read off the curve) stands for the midpoint of the concentration-response curve. Consider B4, for which the “EC50 (read off the curve)” value was roughly 2 nM.
Turning to B6, the “EC50 (read off the curve)” value is roughly 2 nM.
Regarding B8, the “EC50 (read off the curve)” value is roughly 1 nM.

Another assay addresses T2, Human GUCY2C protein on cells …. Described as above. The source holds these as a separate data set.
Consider B7, for which the “EC50 (read off the curve)” value was roughly 0.7 nM.
On the same count and under the same terms, the same measure for B9: roughly 0.6 nM; for B10: roughly 0.7 nM; for B12: roughly 1 nM.

The next assay has the same target. The assay is described as above. This is another data set of the same source.
In the case of B5, the “EC50 (read off the curve)” value was roughly 2 nM.
On the same count and under the same terms, for B11 the value was roughly 1 nM; for B13, roughly 2 nM.

(Values after patent US20260028421A1 (JIANGSU HENGRUI PHARMACEUTICALS, published 2026).)
